B1: Zwilch (natural protein)
chain: not shown

How the values were obtained:
[1] = target: ROD–Zwilch–ZW10 (RZZ) complex (human, UniProt P50748 1-2209; Q9H900 1-591; O43264 1-779); assay: AUC
Zwilch = target: B1; assay: SEC
ROD^1–1,250 [2] = target: T1, ROD^1–1,250 (human, UniProt P50748 1-1250); assay: co-expression and co-purification
T1 sequence (looked up): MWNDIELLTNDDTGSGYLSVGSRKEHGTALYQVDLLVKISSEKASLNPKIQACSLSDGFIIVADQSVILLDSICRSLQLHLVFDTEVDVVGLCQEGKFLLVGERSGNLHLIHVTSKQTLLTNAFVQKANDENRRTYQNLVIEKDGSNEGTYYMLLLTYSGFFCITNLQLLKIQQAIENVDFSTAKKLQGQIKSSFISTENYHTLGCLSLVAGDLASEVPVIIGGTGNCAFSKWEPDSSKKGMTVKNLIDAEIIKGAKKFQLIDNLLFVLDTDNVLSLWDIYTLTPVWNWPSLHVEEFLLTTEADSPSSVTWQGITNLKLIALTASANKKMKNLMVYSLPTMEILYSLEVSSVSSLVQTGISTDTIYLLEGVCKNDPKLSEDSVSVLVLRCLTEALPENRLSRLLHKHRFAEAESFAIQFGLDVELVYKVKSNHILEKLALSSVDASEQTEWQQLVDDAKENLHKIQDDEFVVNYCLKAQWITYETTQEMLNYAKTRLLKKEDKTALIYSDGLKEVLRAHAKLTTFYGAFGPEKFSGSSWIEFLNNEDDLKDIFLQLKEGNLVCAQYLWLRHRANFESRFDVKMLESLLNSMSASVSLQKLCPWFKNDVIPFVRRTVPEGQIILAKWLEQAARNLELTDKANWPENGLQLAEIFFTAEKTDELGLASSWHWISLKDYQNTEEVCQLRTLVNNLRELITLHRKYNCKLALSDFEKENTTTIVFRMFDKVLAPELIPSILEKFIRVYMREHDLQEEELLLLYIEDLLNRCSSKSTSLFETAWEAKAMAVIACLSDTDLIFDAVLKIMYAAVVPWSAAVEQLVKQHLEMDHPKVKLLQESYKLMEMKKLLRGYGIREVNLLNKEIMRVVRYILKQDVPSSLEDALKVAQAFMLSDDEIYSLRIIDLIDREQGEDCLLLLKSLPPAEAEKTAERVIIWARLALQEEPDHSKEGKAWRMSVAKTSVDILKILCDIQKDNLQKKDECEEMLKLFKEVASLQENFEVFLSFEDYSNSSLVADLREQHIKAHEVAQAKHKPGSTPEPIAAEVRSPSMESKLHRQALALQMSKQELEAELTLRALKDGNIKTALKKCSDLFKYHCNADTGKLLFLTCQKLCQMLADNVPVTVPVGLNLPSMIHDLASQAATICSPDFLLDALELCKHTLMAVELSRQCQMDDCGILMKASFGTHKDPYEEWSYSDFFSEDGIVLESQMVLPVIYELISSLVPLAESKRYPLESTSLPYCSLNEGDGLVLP

ROD^1–1,250 [3] = target: T1, ROD^1–1,250; assay: negative-stain EM 3D reconstruction

ROD–Zwilch–ZW10 (RZZ) complex, sequence (Q9H900 whole entry, one chain of several): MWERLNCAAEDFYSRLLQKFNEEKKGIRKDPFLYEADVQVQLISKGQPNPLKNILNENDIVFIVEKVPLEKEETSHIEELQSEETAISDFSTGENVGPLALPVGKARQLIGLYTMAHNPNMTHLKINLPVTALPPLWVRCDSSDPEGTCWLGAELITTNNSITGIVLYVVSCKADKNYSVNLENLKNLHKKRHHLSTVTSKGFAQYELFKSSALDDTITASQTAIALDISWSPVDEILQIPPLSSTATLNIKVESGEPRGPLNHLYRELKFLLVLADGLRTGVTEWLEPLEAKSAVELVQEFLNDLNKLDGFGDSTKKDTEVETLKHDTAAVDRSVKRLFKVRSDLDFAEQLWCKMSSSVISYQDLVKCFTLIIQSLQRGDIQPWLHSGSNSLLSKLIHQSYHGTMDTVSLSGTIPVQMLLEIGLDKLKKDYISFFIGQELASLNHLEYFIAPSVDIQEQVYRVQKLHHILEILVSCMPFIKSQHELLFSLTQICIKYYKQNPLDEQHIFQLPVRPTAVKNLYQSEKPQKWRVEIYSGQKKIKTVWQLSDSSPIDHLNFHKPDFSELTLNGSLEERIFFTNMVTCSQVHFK
Zwilch, sequence (Q9H900 whole entry): as the sequence (Q9H900 whole entry, one chain of several) above

| Binder | stoichiometry N [1] | binding result (Zwilch) | binding result (ROD^1–1,250 [2]) | binding result (ROD^1–1,250 [3]) |
| --- | --- | --- | --- | --- |
| farnesylated Spindly (Spindly^Farn) (natural protein, human, UniProt Q96EA4 1-605, looked up, farnesyl on Cys602) MEADIITNLRCRLKEAEEERLKAAQYGLQLVESQNELQNQLDKCRNEMMTMTESYEQEKYTLQREVELKSRMLESLSCECEAIKQQQKMHLEKLEEQLSRSHGQEVNELKTKIEKLKVELDEARLSEKQLKHQVDHQKELLSCKSEELRVMSERVQESMSSEMLALQIELTEMESMKTTLKEEVNELQYRQEQLELLITNLMRQVDRLKEEKEEREKEAVSYYNALEKARVANQDLQVQLDQALQQALDPNSKGNSLFAEVEDRRAAMERQLISMKVKYQSLKKQNVFNREQMQRMKLQIATLLQMKGSQTEFEQQERLLAMLEQKNGEIKHLLGEIRNLEKFKNLYDSMESKPSVDSGTLEDNTYYTDLLQMKLDNLNKEIESTKGELSIQRMKALFESQRALDIERKLFANERCLQLSESENMKLRAKLDELKLKYEPEETVEVPVLKKRREVLPVDITTAKDACVNNSALGGEVYRLPPQKEETQSCPNSLEDNNLQLEKSVSIYTPVVSLSPHKNLPVDMQLKKEKKCVKLIGVPADAEALSERSGNTPNSPRLAAESKLQTEVKEGKETSSKLEKETCKKLHPILYVSSKSTPETQCPQQ | 2 copies of each subunit | – | – | – |
| mCherry–Spindly^Farn (natural protein, human, UniProt Q96EA4 1-605, looked up, farnesyl on Cys602) MEADIITNLRCRLKEAEEERLKAAQYGLQLVESQNELQNQLDKCRNEMMTMTESYEQEKYTLQREVELKSRMLESLSCECEAIKQQQKMHLEKLEEQLSRSHGQEVNELKTKIEKLKVELDEARLSEKQLKHQVDHQKELLSCKSEELRVMSERVQESMSSEMLALQIELTEMESMKTTLKEEVNELQYRQEQLELLITNLMRQVDRLKEEKEEREKEAVSYYNALEKARVANQDLQVQLDQALQQALDPNSKGNSLFAEVEDRRAAMERQLISMKVKYQSLKKQNVFNREQMQRMKLQIATLLQMKGSQTEFEQQERLLAMLEQKNGEIKHLLGEIRNLEKFKNLYDSMESKPSVDSGTLEDNTYYTDLLQMKLDNLNKEIESTKGELSIQRMKALFESQRALDIERKLFANERCLQLSESENMKLRAKLDELKLKYEPEETVEVPVLKKRREVLPVDITTAKDACVNNSALGGEVYRLPPQKEETQSCPNSLEDNNLQLEKSVSIYTPVVSLSPHKNLPVDMQLKKEKKCVKLIGVPADAEALSERSGNTPNSPRLAAESKLQTEVKEGKETSSKLEKETCKKLHPILYVSSKSTPETQCPQQ | 2 copies of each subunit | – | – | – |
| ROD^Δ754–1,796 (domain or fragment, human) MWNDIELLTNDDTGSGYLSVGSRKEHGTALYQVDLLVKISSEKASLNPKIQACSLSDGFIIVADQSVILLDSICRSLQLHLVFDTEVDVVGLCQEGKFLLVGERSGNLHLIHVTSKQTLLTNAFVQKANDENRRTYQNLVIEKDGSNEGTYYMLLLTYSGFFCITNLQLLKIQQAIENVDFSTAKKLQGQIKSSFISTENYHTLGCLSLVAGDLASEVPVIIGGTGNCAFSKWEPDSSKKGMTVKNLIDAEIIKGAKKFQLIDNLLFVLDTDNVLSLWDIYTLTPVWNWPSLHVEEFLLTTEADSPSSVTWQGITNLKLIALTASANKKMKNLMVYSLPTMEILYSLEVSSVSSLVQTGISTDTIYLLEGVCKNDPKLSEDSVSVLVLRCLTEALPENRLSRLLHKHRFAEAESFAIQFGLDVELVYKVKSNHILEKLALSSVDASEQTEWQQLVDDAKENLHKIQDDEFVVNYCLKAQWITYETTQEMLNYAKTRLLKKEDKTALIYSDGLKEVLRAHAKLTTFYGAFGPEKFSGSSWIEFLNNEDDLKDIFLQLKEGNLVCAQYLWLRHRANFESRFDVKMLESLLNSMSASVSLQKLCPWFKNDVIPFVRRTVPEGQIILAKWLEQAARNLELTDKANWPENGLQLAEIFFTAEKTDELGLASSWHWISLKDYQNTEEVCQLRTLVNNLRELITLHRKYNCKLALSDFEKENTTTIVFRMFDKVLAPELIPSILEKFIRVYMREHDLQEEGGSGGGSGGGSGGGSGIHAAAKEIAEVNEINLEKVWDMLLEKWLCPSTKPGEKPSELFELQEDEALRRVQYLLLSRPIDYSSRMLFVFATSTTTTLGMHQLTFAHRTRALQCLFYLADKETIESLFKKPIEEVKSYLRCITFLASFETLNIPITYELFCSSPKEGMIKGLWKNHSHESMAVRLVTELCLEYKIYDLQLWNGLLQKLLGFNMIPYLRKVLKAISSIHSLWQVPYFSKAWQRVIQIPLLSASCPLSPDQLSDCSESLIAVLECPVSGDLDLIGVARQYIQLELPAFALACLMLMPHSEKRHQQIKNFLGSCDPQVILKQLEEHMNTGQLAGFSHQIRSLILNNIINKKEFGILAKTKYFQMLKMHAMNTNNITELVNYLANDLSLDEASVLITEYSKHCGKPVPPDTAPCEILKMFLSGLS | – | binds | – | – |
| B1 | – | – | binds | binds |
| ZW10 (natural protein, human, UniProt O43264 1-779, looked up) MASFVTEVLAHSGRLEKEDLGTRISRLTRRVEEIKGEVCNMISKKYSEFLPSMQSAQGLITQVDKLSEDIDLLKSRIESEVRRDLHVSTGEFTDLKQQLERDSVVLSLLKQLQEFSTAIEEYNCALTEKKYVTGAQRLEEAQKCLKLLKSRKCFDLKILKSLSMELTIQKQNILYHLGEEWQKLIVWKFPPSKDTSSLESYLQTELHLYTEQSHKEEKTPMPPISSVLLAFSVLGELHSKLKSFGQMLLKYILRPLASCPSLHAVIESQPNIVIIRFESIMTNLEYPSPSEVFTKIRLVLEVLQKQLLDLPLDTDLENEKTSTVPLAEMLGDMIWEDLSECLIKNCLVYSIPTNSSKLQQYEEIIQSTEEFENALKEMRFLKGDTTDLLKYARNINSHFANKKCQDVIVAARNLMTSEIHNTVKIIPDSKINVPELPTPDEDNKLEVQKVSNTQYHEVMNLEPENTLDQHSFSLPTCRISESVKKLMELAYQTLLEATTSSDQCAVQLFYSVRNIFHLFHDVVPTYHKENLQKLPQLAAIHHNNCMYIAHHLLTLGHQFRLRLAPILCDGTATFVDLVPGFRRLGTECFLAQMRAQKGELLERLSSARNFSNMDDEENYSAASKAVRQVLHQLKRLGIVWQDVLPVNIYCKAMGTLLNTAISEVIGKITALEDISTEDGDRLYSLCKTVMDEGPQVFAPLSEESKNKKYQEEVPVYVPKWMPFKELMMMLQASLQEIGDRWADGKGPLAAAFSSSEVKALIRALFQNTERRAAALAKIK | – | – | binds | binds |

Reference: PMC5379955 (The Journal of Cell Biology, 2017)
